Measurements published in the supplement of paper PMC9876800.

Test system: peptide library, one residue held at a place counted from the S/T acceptor
Experiment: relative phosphorylation of the sub-library (ratio to the mean residue at this position); higher = residue favoured
Details: human
How it was run: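 Relative sub-library phosphorylation is the ratio of each sub-library's signal to the mean residue at that position. The signal came from phosphorimaging of spots on streptavidin membranes, quantified by densitometry, after purified recombinant kinases reacted with biotinylated degenerate peptide sub-libraries in 384-well plates. Reactions held 50 μM peptide and 50 μM ATP spiked with γ-32P-ATP for 90 min under kinase-specific conditions.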

CAMK1D, construct: Full length, sequence (Q8IU85 whole entry, looked up): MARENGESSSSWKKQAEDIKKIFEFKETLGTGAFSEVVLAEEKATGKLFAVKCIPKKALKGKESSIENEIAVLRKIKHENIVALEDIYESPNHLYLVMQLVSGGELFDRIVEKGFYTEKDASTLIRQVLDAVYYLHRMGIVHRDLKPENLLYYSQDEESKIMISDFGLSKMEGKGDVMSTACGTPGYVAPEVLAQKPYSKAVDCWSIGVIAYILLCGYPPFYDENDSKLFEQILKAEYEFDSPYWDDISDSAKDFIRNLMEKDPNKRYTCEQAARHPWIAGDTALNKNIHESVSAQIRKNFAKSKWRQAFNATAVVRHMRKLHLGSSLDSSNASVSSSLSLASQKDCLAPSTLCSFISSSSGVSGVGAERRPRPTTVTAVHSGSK

CAMK1D, construct: Full length (from UniProt Q8IU85)
relative phosphorylation
Details	at +1	at +2	at +3	at +4	at -1	at -2	at -3	at -4	at -5
A fixed	0.771	0.831	0.729	0.681	0.791	0.914	0.52	0.782	0.533
D fixed	0.658	1.06	1.35	0.996	0.975	0.373	0.154	0.438	0.269
E fixed	0.811	1.22	1.15	0.974	0.646	0.504	0.22	0.784	0.252
F fixed	1.75	1.14	1.17	1.39	0.597	0.446	0.631	0.724	1.38
G fixed	0.761	0.625	0.956	0.822	0.793	0.772	0.287	0.698	0.564
H fixed	1.03	1.47	1.34	0.936	1.35	0.962	0.964	0.955	0.787
I fixed	0.665	0.881	0.722	1.35	0.475	0.37	0.132	0.815	1.31
K fixed	1.26	0.591	0.717	0.675	1.9	1.95	2.7	2.58	0.999
L fixed	0.744	1.06	0.892	1.39	0.759	0.526	0.164	0.886	2.33
M fixed	1.01	0.846	0.854	1.51	0.824	1.09	0.238	0.995	1.35
N fixed	1.29	1.3	1.44	1.01	1.85	0.965	0.414	0.923	0.594
P fixed	0.237	0.753	0.786	1.12	1.41	0.311	0.389	0.63	1.19
Q fixed	1.68	1.14	1.07	0.969	1.28	2.08	0.63	1.06	0.905
R fixed	1.62	0.7	0.785	0.616	1.5	3.51	8.75	2.35	1.85
V fixed	0.747	0.736	0.627	0.746	0.523	0.448	0.153	0.883	0.752
W fixed	0.971	1.3	1.34	0.973	0.486	1.13	0.395	0.706	0.977
Y fixed	0.988	1.35	1.07	0.833	0.834	0.656	0.263	0.789	0.961
pThr fixed	0.967	0.874	0.756	1.2	0.312	0.312	0.221	0.486	0.375
pTyr fixed	0.844	2.75	1.25	0.949	0.739	0.291	0.205	0.431	0.739
